The values below come from US20110262445A1 (CEPHALON AUSTRALIA, published 2011).

Experiment [1] concerns the target T1, Antibody 136.
T1 construct: Humanized PMA204 (1RZ7 framework)
Nature of the experiment: SPR control: PMA202 injected over Antibody 136 captured on Protein A, no cytokine. As to the method: (§1) Protein A (Thermo) was immobilized onto a CM5 sensor chip using a BIAcore 3000. Chimeric or humanized antibody at 5 ug/mL in HBS-P (GE Healthcare) was then injected for 1 min at a flow rate of 20 ul/min. IL-12 or IL-23 was then injected over the surface at 5 ug/mL in HBS-P for 1 min at a flow rate of 20 ul/min. Murine antibody was then injected at 5 ug/mL in HBS-P for 1 min at a flow rate of 20 ul/min. Controls in which IL-12 or IL-23 was replaced with HBS-P, and in which the murine antibody was replaced with HBS-P were also performed. All data was substrated from a control run in which IL-12 or IL-23 or the murine antibody was tested for background binding to the Protein A surface.

Experiment [2] deals with T2, human IL-12 (human, UniProt P29460 23-328; P29459 23-219).
T2 construct: Recombinant (Peprotech); FLAG-tagged IL-12 in the flow cytometry assays, biotinylated in the IL-12Rβ2 assay; also called hIL-12
T2 sequence 1: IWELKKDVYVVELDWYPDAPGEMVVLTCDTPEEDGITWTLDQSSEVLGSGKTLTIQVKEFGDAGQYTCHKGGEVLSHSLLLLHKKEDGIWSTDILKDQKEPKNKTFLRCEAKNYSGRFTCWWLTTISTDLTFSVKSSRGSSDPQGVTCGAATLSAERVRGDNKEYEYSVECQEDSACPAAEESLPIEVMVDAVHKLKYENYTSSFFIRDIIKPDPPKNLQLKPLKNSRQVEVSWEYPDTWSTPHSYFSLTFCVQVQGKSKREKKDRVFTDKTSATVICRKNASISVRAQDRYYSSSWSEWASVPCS
T2 sequence 2: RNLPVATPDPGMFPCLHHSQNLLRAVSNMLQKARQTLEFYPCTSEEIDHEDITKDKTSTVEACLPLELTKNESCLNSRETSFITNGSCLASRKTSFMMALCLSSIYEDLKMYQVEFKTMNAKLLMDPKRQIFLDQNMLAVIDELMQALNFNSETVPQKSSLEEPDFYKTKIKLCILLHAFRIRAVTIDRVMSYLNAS
Nature of the experiment: neutralization ELISA: IL-12 preincubated with antibody, its binding to coated IL-12Rβ2/Fc is blocked. In a few lines: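 IL-12Rβ2/Fc chimera at 5 ug/ml in carbonate buffer was coated overnight at 4° C and blocked with 1% BSA for 1 hour at 25° C. Biotinylated IL-12 was preincubated with titrated antibody for 2 hours, then added to the wells for 2 hours at 25° C. Detection used Streptavidin HRP 1:5000 and TMB, stopped with 1M HCl, with absorbance read at 450 nm (reference 620 nm). IC50 was read off the curve.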
(In general: An ELISA detects its analyte on a solid surface through an enzyme-linked reagent.)

The target in experiment [3] is T1, Antibody 136. Nature of the experiment: SPR control: PMA204 injected over Antibody 136 captured on Protein A, no cytokine. How it is done:
as §1

The target of experiment [4] is T2, human IL-12. In words: ELISA, coated IL-12. As to the method:
(§2) IL-12 (Peprotech), IL-23 (Ebioscience™), IL-12p40 (Ebioscience™) or IL-12p80 (Peprotech), was diluted to 1 μg/mL in carbonate coating buffer ([…] pH 9.6) and coated onto a 96 well plate (Nunc™, Maxisorp™) overnight at 4° C. The plate was then washed three times with wash buffer (0.01M PBS pH 7.2, 0.05% Tween-20) and then three times with 0.01M PBS pH 7.2. The wells were then blocked by adding 200 μl of blocking buffer (1% w/v BSA in 0.01 M PBS pH 7.2) to each well and incubating the plate at 25° C. for 1 hour. The antibody was diluted in antibody diluent (1% w/v BSA, 0.05% Tween-20 in 0.01M PBS pH 7.2) sufficient to generate a titration curve. The wells were incubated with the antibody for 1 hour at 25° C. The plate was then washed as previously described. Goat anti-human immunoglobulin G (H+L) antibody HRP conjugate (Zymed®) at 1:2000 in antibody diluent was used to detect bound primary antibody. Goat anti-murine immunoglobulin antibody HRP conjugate (Dako) at 1:2000 in antibody diluent was used to detect bound murine antibody. After incubation at 25° C. for 1 hour the plate was washed again as previously described. TMB substrate solution (Zymed®) was added to each well and the colour allowed to develop; the reaction was terminated by adding 1M HCl to the wells. The absorbance of each well was determined at 450 nm (ref. 620 nm).

Experiment [5] deals with T3, human IL-23 (human, UniProt P29460 23-328; Q9NPF7 20-189).
T3 construct: Recombinant (Ebioscience); HIS-tagged in flow cytometry, biotinylated in some assays; also called hIL-23; rhIL-23
T3 sequence 1: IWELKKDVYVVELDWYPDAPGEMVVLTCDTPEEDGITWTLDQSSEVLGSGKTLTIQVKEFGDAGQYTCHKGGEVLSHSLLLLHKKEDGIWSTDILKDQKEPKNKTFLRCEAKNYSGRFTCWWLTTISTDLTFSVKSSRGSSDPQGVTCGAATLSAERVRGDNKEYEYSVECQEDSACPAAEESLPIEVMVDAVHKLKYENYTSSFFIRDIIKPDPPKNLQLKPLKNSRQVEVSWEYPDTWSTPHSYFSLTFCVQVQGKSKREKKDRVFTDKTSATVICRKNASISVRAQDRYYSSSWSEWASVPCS
T3 sequence 2: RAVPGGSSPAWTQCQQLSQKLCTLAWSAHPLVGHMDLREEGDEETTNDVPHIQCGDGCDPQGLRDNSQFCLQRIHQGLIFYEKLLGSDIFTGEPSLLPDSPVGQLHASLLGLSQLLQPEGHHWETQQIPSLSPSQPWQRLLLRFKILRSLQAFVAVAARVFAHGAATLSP
In words: neutralization ELISA: IL-23 preincubated with antibody, its binding to coated IL-23R is blocked. Summed up:
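His-tagged IL-23R made in HEK-293E cells was coated in carbonate buffer overnight at 4° C and blocked with 1% BSA. Biotinylated IL-23 at 50 ng/ml was preincubated with titrated antibody for 2 hours, then added to the wells for 2 hours at 25° C. Detection used Streptavidin HRP 1:5000 and TMB for 15 minutes, stopped with 1M HCl, read at 450 nm (reference 620 nm). IC50 was read off the curve.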

The target of experiment [6] is T3, human IL-23. Nature of the experiment: ELISA, coated IL-23. As to the method:
as §2

Experiment [7] addresses T2, human IL-12. Nature of the experiment: SPR, IgG on Protein A. How it is done: (§3) Using a SPR 3000, Protein A was immobilized onto FC1 and FC2 (or alternatively FC3 and FC4) of a CM5 research grade sensor chip using amine coupling, giving approximately […] RU. FC1 was used a blank throughout the experiments. The experiments were run in HBS-P buffer (SPR). At a flow rate of 20 μl/min, 20 μl of 5 μg/mL of antibody was passed over FC2. IL-12, IL-23 or IL-12p40 (Peprotech) were passed over the surface of FC1 and FC2 at concentrations ranging from 66 nM to 2 nM. Regeneration of the surface was performed using 10 mM Glycine, pH 1.0. The sensorgram data from FC2 was subtracted from FC1 and a buffer only control. The curves were fitted using a 1:1 Langmuir equation to generate the kd, ka and KD values. All curves were fitted with a χ² of less then 2.0 where possible.
In general terms: SPR reads the build-up and loss of mass on a sensor chip optically.

Experiment [8] concerns the target T3, human IL-23. In words: SPR, IgG on Protein A. How it is done:
as §3

The target of experiment [9] is T4, human IL-12p40 (human, UniProt P29460 23-328).
T4 construct: p40 monomer; also called p40 subunit
T4 sequence: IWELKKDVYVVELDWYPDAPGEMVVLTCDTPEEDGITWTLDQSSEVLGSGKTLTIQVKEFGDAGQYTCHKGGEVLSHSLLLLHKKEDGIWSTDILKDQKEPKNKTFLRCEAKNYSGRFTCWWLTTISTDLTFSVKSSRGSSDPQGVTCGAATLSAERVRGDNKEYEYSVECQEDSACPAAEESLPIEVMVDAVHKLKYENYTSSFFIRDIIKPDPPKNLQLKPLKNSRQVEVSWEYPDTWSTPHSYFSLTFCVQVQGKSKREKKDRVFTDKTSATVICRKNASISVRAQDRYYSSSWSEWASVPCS
In words: ELISA, coated IL-12p40. As to the method:
as §2

Experiment [10] addresses T4, human IL-12p40. In words: SPR, IgG on Protein A. As to the method:
as §3

Experiment [11] addresses T2, human IL-12. Nature of the experiment: SPR, IgG on Protein A. How it is done: as §3
This is another data set of the same source.

For experiment [12], the target named is T3, human IL-23. Nature of the experiment: SPR, IgG on Protein A. How it is done: as §3
This is another data set of the same source.

The target in experiment [13] is T3, human IL-23. In words: SPR, IgG; LOD estimated 1 × 10^-5 s^-1.
Experiment [14] addresses T2, human IL-12. Nature of the experiment: SPR, IgG. How it is done:
(§4) CU-A6 was converted to Antibody 183, CP-A6 was converted to Antibody 184 and AW-F2 was converted to Antibody 207 by addition of a human heavy chain Fc region (SEQ ID NO: 8) and a constant kappa light chain region (SEQ ID NO: 9). IgG molecules were expressed by co-transfecting the heavy and light chain construct for each antibody into HEK 293E cultures. The expressed IgGs were purified by affinity chromatography and gel exclusion and the resulting monomeric molecules were tested for IL-12 and IL-23 binding by SPR (TABLE 6). All three IgG variants retained binding activity against both analytes with a visible improvement in kd compared to the parental wild-type IgG. Based on this, it is reasonable to expect that scFv variants described in TABLE 4 could be converted to the IgG format and retain improved binding characteristics against IL-12 and IL-23.
as §3

Experiment [15] has as its target T3, human IL-23. Nature of the experiment: SPR, IgG. How it is done: as §4, §3

B1: PMA202 (antibody, V domains shown)
VH: QIQLVQSGPELKKPGETVKISCKASGYTFTNYGMNWVKQAPGKGLKWMGWINTYTGEPTYADDFKGRFAFSLETSASTAYLQINNFKNEDTATYFCARSLSTMITTTFAYWGQGTLVTVSS
VL: SIVMTQTPKFLLVSAGDRVTITCKASQSVSNDVAWYQQKPGQSPKLLIYYASNRYTGVPDRFTGSGYGTDFTFTISTVQAEDLAVYFCQQDYSSPYTFGGGTKLEIKR
notes: Murine hybridoma antibody, murine IgG1kappa
Consider B1, for which the binding result in the experiment with Antibody 136 [1] is “no binding”.

B2: PMA204 (antibody, V domains shown)
VH: EVQLQQSGADLVRSGASIKLSCTASGFNIKDYYMHWVKQRPEQGLEWIGWIDPENGDTEYAPKFQGKATMTADTSSNTAYLQLSSLTSEDTAVYYCNACKELRYFDVWGAGTTVTVSS
VL: DIVLTQSPATLSVTPGDSVSLSCRASQSISINLHWYQQKSHESPRLLIKFASQSISGIPSRFSGYGSGTDFTLSINSVETEDFGRYFCQQSNSWPLTFGAGTKLELKR
notes: as for B1
As for B2, the “IC50 (read off the curve)” value with human IL-12 [2] was approximately 0.2 µg/mL; in the experiment with human IL-23 [5], approximately 0.6 µg/mL. In addition, the binding result with Antibody 136 [3] is recorded as “no binding”. In addition, the EC50 (read off the curve) (in general, the concentration at which the effect is half-maximal) with human IL-12 [4] was approximately 0.02 µg/mL; in the experiment with human IL-23 [6], approximately 0.01 µg/mL.

B3: Antibody 1 (antibody, human IgG1, kappa, V domains shown)
VH: EVQLQQSGADLVRSGASIKLSCTASGFNIKDYYMHWVKQRPEQGLEWIGWIDPENGDTEYAPKFQGKATMTADTSSNTAYLQLSSLTSEDTAVYYCNACKELRYFDVWGAGTTVTVSS
VL: DIVLTQSPATLSVTPGDSVSLSCRASQSISINLHWYQQKSHESPRLLIKFASQSISGIPSRFSGYGSGTDFTLSINSVETEDFGRYFCQQSNSWPLTFGAGTKLELKR
notes: Chimeric PMA204, human IgG1/kappa
Turning to B3, the figures for the “IC50 (read off the curve)” value with human IL-12 [2] and with human IL-23 [5] were approximately 0.4 µg/mL and approximately 1 µg/mL, respectively. Also, the dissociation constant (Kd) (commonly the free concentration of one partner at which half of the binding sites on the other are occupied at equilibrium, for simple one-to-one binding) came out at 79.5 pM with human IL-12 [7]; 51.3 pM in the experiment with human IL-23 [8]; 66.3 pM in the experiment with human IL-12p40 [10]; 47.7 pM with human IL-12 [11]; 44.6 pM with human IL-23 [12]. Further, the koff (as a rule, the rate constant with which the complex falls apart) with human IL-12 [7] is 0.000132 s⁻¹; in the experiment with human IL-23 [8], 0.000146 s⁻¹; with human IL-12p40 [10], 7.12e-05 s⁻¹; with human IL-12 [11], 6.45e-05 s⁻¹; with human IL-23 [12], 0.000114 s⁻¹. Moreover, the kon – broadly, the second-order rate constant of association – in the experiment with human IL-12 [7] was determined as 1.67e+06 M⁻¹ s⁻¹; in the experiment with human IL-23 [8], 2.85e+06 M⁻¹ s⁻¹; in the experiment with human IL-12p40 [10], 1.07e+06 M⁻¹ s⁻¹; with human IL-12 [11], 1.36e+06 M⁻¹ s⁻¹; with human IL-23 [12], 2.55e+06 M⁻¹ s⁻¹. In the experiment with human IL-12p40 [9], the “EC50 (read off the curve)” value was approximately 0.03 µg/mL.

B4: Antibody 183 (antibody, human IgG1, kappa, V domains shown)
VH: QVQLVQSGAEVKKPGASVKVSCKASGYTLTDYYLHWVRQAPGQGLEWMGWIDPENGDTEYAPKFQGRVTMTTDTSTSTAYMELRSLRSDDTAVYYCNANKELRYFDVWGQGAMVTVSS
VL: EIVMTQSPATLSVSPGERATLSCRASQSISINLHWYQQKPGQAPRLLIYFASQSISGIPARFFGSGSGTEFTLTISSLQSEDFAVYYCQQSNSFPLTFGGGTKVEIKR
notes: also called CU-A6 as IgG
Regarding B4, the koff with human IL-23 [13] is less than 1e-05 s⁻¹; with human IL-12 [14], 0.00027 s⁻¹. Besides, the Kd in the experiment with human IL-12 [14] is 65 pM; in the experiment with human IL-23 [15], not above 2.7 pM. For the same molecule, the figures for the kon in the experiment with human IL-12 [14] and in the experiment with human IL-23 [15] were 4.1e+06 M⁻¹ s⁻¹ and 400000 M⁻¹ s⁻¹, respectively.
